From article PMC5382158 (Frontiers in Cellular and Infection Microbiology, 2017)

B1: KdpF-T18 (peptide)
chain: MTTVDNIVGLVIAVALMAFLFAALLFPEKF

Key:
[1] = target: NarI-T25 (M. tuberculosis); assay: two-hybrid
[2] = target: T1, Rv2617c-T25 (M. tuberculosis, UniProt I6XER9 1-146); assay: two-hybrid; conditions: partners not purified
T1 sequence: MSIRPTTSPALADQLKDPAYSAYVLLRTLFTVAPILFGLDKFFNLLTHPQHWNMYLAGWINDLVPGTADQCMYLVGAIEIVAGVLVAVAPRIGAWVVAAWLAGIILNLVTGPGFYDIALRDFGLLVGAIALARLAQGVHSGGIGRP

Molecule	β-galactosidase activity [1]	β-galactosidase activity [2]
KdpF-T18 (peptide)	1200 Miller units	
B1		2030 Miller units
